Laboratory results as given in US20250042994A1 (HAINAN SIMCERE ZAIMING PHARMACEUTICAL, published 2025).

Tests used:
[1] = target: T1, Human CD19-his protein (human, UniProt P15391 20-291); assay: ELISA, antibody at 100 nM
T1 construct: bought protein; also called human CD19 protein; recombinant human CD19-His; not shown: His tag
T1 sequence (looked up): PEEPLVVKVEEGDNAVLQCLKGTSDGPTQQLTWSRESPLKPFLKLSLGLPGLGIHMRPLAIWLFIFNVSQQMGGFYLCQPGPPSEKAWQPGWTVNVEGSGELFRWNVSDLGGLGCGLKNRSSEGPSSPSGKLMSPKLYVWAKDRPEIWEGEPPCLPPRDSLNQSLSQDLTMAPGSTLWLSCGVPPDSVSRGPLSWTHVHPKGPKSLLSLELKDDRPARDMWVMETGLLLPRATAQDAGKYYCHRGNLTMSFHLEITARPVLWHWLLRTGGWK

[2] = target: T1, Human CD19-his protein; assay: ELISA, antibody at 0.0001 nM
[3] = target: T2, murine CD19 protein (murine, UniProt P25918 17-287, limits assumed); assay: ELISA, coated murine CD19
T2 construct: bought protein; also called commercial murine CD19
T2 sequence (looked up): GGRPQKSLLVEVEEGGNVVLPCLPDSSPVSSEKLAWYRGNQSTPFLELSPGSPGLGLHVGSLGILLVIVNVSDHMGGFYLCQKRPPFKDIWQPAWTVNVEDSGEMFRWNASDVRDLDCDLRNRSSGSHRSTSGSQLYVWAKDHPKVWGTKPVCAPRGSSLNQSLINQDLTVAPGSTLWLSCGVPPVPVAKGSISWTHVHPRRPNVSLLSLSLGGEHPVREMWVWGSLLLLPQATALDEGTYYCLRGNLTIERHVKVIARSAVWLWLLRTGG
Procedure, shortened: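 Plates coated overnight at 4° C with recombinant murine or monkey CD19 and blocked with 2% BSA. Chimeric antibodies, serially diluted from 100 nM, bound for 2 h at 37° C. TMB development for 10 min with OD450 read-out.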

[4] = target: T1, Human CD19-his protein; assay: ELISA, antibody at 0.01 nM
[5] = target: T1, Human CD19-his protein; assay: ELISA, antibody at 0.001 nM
[6] = target: T1, Human CD19-his protein; assay: ELISA, antibody at 0.10 nM
[7] = target: T1, Human CD19-his protein; assay: ELISA, antibody at 10 nM
[8] = target: T3, human CD19 exon1-3-his protein (human, UniProt P15391 20-186, limits assumed); assay: ELISA, coated at 2 ug/mL
T3 construct: made in HEK293E cells; also called membrane-distal end; not shown: His tag
T3 sequence (looked up): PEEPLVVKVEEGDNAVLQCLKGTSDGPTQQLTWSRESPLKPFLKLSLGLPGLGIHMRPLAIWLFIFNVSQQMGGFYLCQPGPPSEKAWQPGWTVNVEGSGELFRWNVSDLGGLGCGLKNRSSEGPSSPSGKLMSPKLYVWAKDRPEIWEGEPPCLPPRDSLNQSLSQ

[9] = target: T1, Human CD19-his protein; assay: ELISA on coated human CD19-His
[10] = target: T1, Human CD19-his protein; assay: ELISA, antibody at 1.00 nM

B1: F2.15.26 (antibody, human IgG1, V domains shown)
VH: QVQLKESGPGLVAPSQSLSITCTVSGFSLTDYGVSWIRQSPGKGLEWLGVIWGSGDTYYNSVLESRLSINKDNSKNQVFLKMNSLQTDDAAMYFCAKHSYYGGSFAMDYWGQGTSVTVSS
VL: DIQMTQTTSSLSASLGDRVTISCRASQDISNYLNWYQQKPDGTVKLLIYYTSRLHSGVPSRFSGSGSGTDYSLTISNLEQEDIATYFCQQGKTLPWTFGGGTKLEIK
notes: human-murine chimeric antibody, human IgG1
[1]
  OD450: 1.54
[2]
  OD450: 0.05
[3]
  binding result: no binding
[4]
  OD450: 0.18
[5]
  OD450: 0.07
[6]
  OD450: 0.8
[7]
  OD450: 1.4
[8]
  binding result: no binding
[9]
  EC50 (read off the curve): ~0.09 nM
[10]
  OD450: 1.3

B2: F3.64.4 (antibody, human IgG1, V domains shown)
VH: EVQLQQSGPELVKPGASVKISCKASGYTFTDYHINWVKQSHGKSPEWIGDINPNNGGTTYNQKFKDKATLTVDKSSSTAFMELRSLTSEDSAVYYCARFITTVVAWYFDVWGTGTTVTVSS
VL: DIQMTQSPASLSVSVGETVTITCRASENIYSNLAWYQQKQGKSPQLLVYAATNLADGVPSRFSGSGSGTQYSLKINSLQSEDFGNYYCQRFWDTPRTFGGGTKLEIK
notes: as for B1
[1]
  OD450: 0.83
[2]
  OD450: 0.05
[3]
  binding result: no binding
[4]
  OD450: 0.13
[5]
  OD450: 0.06
[6]
  OD450: 0.55
[7]
  OD450: 1
[8]
  binding result: no binding
[9]
  EC50 (read off the curve): ~0.1 nM
[10]
  OD450: 1.06

B3: F4.18.13 (antibody, human IgG1, V domains shown)
VH: QVQLQQSGPELVKPGASVKISCKASGYAFSSFWMNWVKQRPGEGLEWIGRIYPGDGDTNYNGKFKGKATLTADDSSSTAYMQLSSLTSVDSAVYFCAREVIAAVVTTDFDYWGQGTTLTVSS
VL: DIQMTQTTSSLSASLGDRVTISCRTSQDISNYLNWYLQKPDGTVKLLIYYTSGLHSGVPSRFSGSGSGTDYSLTISNLEPEDIATYFCQQGKTLPYTFGGGTKLEIK
notes: as for B1
[1]
  OD450: 1.69
[2]
  OD450: 0.05
[3]
  binding result: no binding
[4]
  OD450: 0.25
[5]
  OD450: 0.08
[6]
  OD450: 1.32
[7]
  OD450: 1.96
[8]
  binding result: no binding
[9]
  EC50 (read off the curve): ~0.05 nM
[10]
  OD450: 2.01

B4: F3.113.16 (antibody, human IgG1, V domains shown)
VH: QVQLQQPGAELVKPGASVKLSCKASGYTFTNYWMQWVKQRPGQGLEWIGEIDPSDSYINYNQKFKGKATLTADTSSSTAYMQLSSLTYEDSAVYYCARPVTVPWYFDVWGTGTTVTVSS
VL: EIVLTQSPTTMAASPGEKITITCSATSSISSNYLHWYQQKPGFSPKLLIYRTSNLASGVPARFSGSGSGTSYSLTIGTMEAEDVATYYCQQGSAIPRIFTFGSGTKLEIK
notes: as for B1
[1]
  OD450: 0.38
[2]
  OD450: 0.05
[3]
  binding result: no binding
[4]
  OD450: 0.06
[5]
  OD450: 0.05
[6]
  OD450: 0.11
[7]
  OD450: 0.34
[8]
  binding result: no binding
[9]
  EC50 (read off the curve): ~0.5 nM
[10]
  OD450: 0.26

B5: F3.121.4 (antibody, human IgG1, V domains shown)
VH: QVQLQQPGAELVVPGTSVKLSCKASGYTFTNYWMHWVKQRPGQGLEWIGEIDPSDNYANYNQEFQGKATLTVDKSSSTAYMQLSSLTSDDSAVYYCARHDGYFGALDYWGQGTSVTVSS
VL: EIVLTQSPTTMAASPGEKITITCSASSSISSNYLHWYQQKPGFSPKFLIYRTSNLASGVPARFSGSGSGTSYSLTIGTMEAEDVATYYCQQASSIPRMFTFGSGTKLEIK
notes: human-murine chimeric antibody, human IgG1; also called chimeric antibody F3.121.4
[1]
  OD450: 0.82
[2]
  OD450: 0.05
[3]
  binding result: no binding
[4]
  OD450: 0.11
[5]
  OD450: 0.06
[6]
  OD450: 0.5
[7]
  OD450: 1.04
[8]
  binding result: no binding
[9]
  EC50 (read off the curve): ~0.1 nM
[10]
  OD450: 0.88
